Laboratory results from patent US20210139554A1 (published 2021).

B1: 26H7 (antibody, V domains shown)
VH: EVQLVQSGAEVKKPGESLKISCKGSGYRFTNYWIGWVRQMPGKGLEWMGIIYPGDSDTKYSPSFQGQVTISADKSISTAYLQWSSLKASDTAMYYCARHGGYSGRSYYYGMDVWGQGTAVTVSS
VL: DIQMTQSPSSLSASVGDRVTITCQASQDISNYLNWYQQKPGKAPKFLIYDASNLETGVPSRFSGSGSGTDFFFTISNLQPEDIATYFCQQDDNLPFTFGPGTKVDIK
B2: 2C3 (antibody, V domains shown)
VH: EVQLVQSGAEVKKPGESLKISCKGSGYRFTSYWIGWVRQMPGKGLEWMGIIYPGDSDTRYSPSFQGQVTISADKSISAAYLQWSSLKASDTAMYYCARQQVAGMLDYWGQGTLVTVSS
VL: EIVLTQSPGTLSLSPGERATLSCRASQSFSSSYLVWYQQKPGQAPRLLIYGASSRATGIPDRFGGSGSGTDFTLTISRLEPEDFAVYYCQQYGSSPLTFGGGTKVEIK

Tests used:
[1] = molecular target: T1, wild-type human IL-2 (human, UniProt P60568 21-153); assay: BIACORE
T1 construct: The construct used in ELISA and BIACORE is not described; also called hIL-2; WT IL-2

[2] = molecular target: T2, cynomolgus monkey IL-2 (cynomolgus monkey, UniProt Q29615 21-154, limits assumed); assay: BIACORE
T2 construct: also called cyno IL-2
T2 sequence (Q29615 21-154 limits assumed): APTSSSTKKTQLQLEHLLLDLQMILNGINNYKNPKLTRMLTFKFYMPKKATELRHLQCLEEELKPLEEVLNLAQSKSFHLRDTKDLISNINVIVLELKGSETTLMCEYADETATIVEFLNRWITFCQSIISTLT

T1 sequence (P60568 21-153 limits assumed): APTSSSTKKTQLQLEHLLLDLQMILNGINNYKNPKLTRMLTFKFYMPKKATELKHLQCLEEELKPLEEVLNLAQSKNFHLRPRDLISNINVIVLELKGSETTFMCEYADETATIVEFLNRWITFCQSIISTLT

| Binder | Kd [1] [nM] | Kd [2] [nM] |
| --- | --- | --- |
| B1 | ~1.3 | – |
| B2 | – | ~1.2 |
